Laboratory results reported in patent US20160228506A1, “Compositions and Formulations for Prevention and Reduction of Tumorigenesis, Cancer Cell Proliferation and Invasion, and Methods of Production and Use Thereof in Cancer Treatment” (PRONUTRIA, INC., priority 2013, published 2016).

Legend:
[1] = SGF digest of 168 nutritive polypeptide library, intact protein by LC-MS/MS; format: in vitro ADME; details: for % Intact Protein at 10 min: 168 nutritive polypeptide library SGF digest, LC-MS/MS spectral counts; for % Remaining at 10 min: 168 nutritive polypeptide library, LC-MS/MS
Outline: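 Spectral-count ratios (10 min vs 0 min, peak gel fraction plus neighbours) give the percent of each protein left intact after SGF digestion of a pooled, IMAC-purified 168-member recombinant library. Samples were gel-fractionated, trypsinised in-gel and run on Orbitrap nanoLC-MS/MS, requiring two unique peptides at 1% FDR.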

[2] = Thermostability, temperature of aggregation (ProteoStat Thermal Shift); format: physicochemical; parameters: key to Tagg: temperature in °C; details: for Tagg (pH 7.1): Table E31D, heated 25° C. to 95° C.
Procedure: The thermostability of proteins in a buffer cocktail of Citric Acid and Dibasic Sodium Phosphate over a pH range of 2.8 to 7.1 (preparation described above in Table E31B) was determined using the ProteoStat® Thermal Shift Stability Kit (Enzo Life Sciences) according to the manufacturer's standard protocol. Briefly, protein solutions (˜10 mg/ml) containing 1× ProteoStat TS Detection Reagent were heated from 25° C. to 95° C. at a rate of 0.5° C. per 30 sec using a real-time PCR (rtPCR) thermocycler (BioRad) equipped with a plate reader (SynergyMx, Biotek) while monitoring the fluorescence with a Texas Red filter.

[3] = Intact half-life during simulated gastric fluid (SGF) digestion; details: for SGF Half-life (t½): SGF pH 1.5, pepsin:polypeptide 1:20 w/w, 37° C., intact protein; for Half-life: purified proteins, chip electrophoresis
[4] = pH solubility; format: physicochemical; details: for pH Range where Protein is >80% detected as Soluble and A650 <1 OD: Low: lower pH; for pH Range where Protein is >80% detected as Soluble and A650 <1 OD: High: upper pH
Procedure: pH Solubility. […] Protein was either lyophilized and then resuspended in buffer cocktail mixtures, or concentrated and then spiked into buffer cocktail mixtures at a final protein concentration of 5 to 30 mg/ml. As a control, protein was also dissolved in a solution of 8 M urea. Protein solutions were shaken for 10 min at room temperature. Turbidity of proteins was determined by measuring the absorbance of protein solutions at 650 nm. The protein solution was then centrifuged for 10 min at 1100×g to pellet undissolved or precipitated protein. The soluble protein fraction (supernatant) was sampled and protein concentration was measured by one or more of the following methods: Coomassie Plus Protein Assay (Pierce), Chip electrophoresis, gel electrophoresis, and/or absorbance at 280 nm. The pH range over which select proteins remained greater than 80% soluble as determined by Bradford and the A650 value are listed in Table E31C.

Molecule	Tagg (pH 7.1) [2]	SGF Half-life (t½) [3] [s]	pH Range where Protein is >80% detected as Soluble and A650 <1 OD: Low [4]	pH Range where Protein is >80% detected as Soluble and A650 <1 OD: High [4]	further results
SEQID-00610: protein of the 168 nutritive polypeptide library (protein, listed as Saccharomyces cerevisiae, source: /note="strain ATCC 204508 / S288c", protein of the 168 nutritive polypeptide library) MVLEATVLVIDNSEYSRNGDFPRTRFEAQIDSVEFIFQAKRNSNPENTVGLISGAGANPRVLSTFTAEFGKILAGLHDTQIEGKLHMATALQIAQLTLKHRQNKVQHQRIVAFVCSPISDSRDELIRLAKTLKKNNVAVDIINFGEIEQNTELLDEFIAAVNNPQEETSHLLTVTPGPRLLYENIASSPIILEEGSSGMGAFGGSGGDSDANGTFMDFGVDPSMDPELAMALRLSMEEEQQRQERLRQQQQQQDQPEQSEQPEQHQDK	54.5	24	–	–	% Intact Protein at 10 min [1]: 3.3%; % Remaining at 10 min [1]: 3.3%; Half-life [3]: 24 s
SEQID-00241: nutritive polypeptide (protein, listed as Bos taurus) SELKKDIDDLELTLAKVEKEKHATENKVKNLTEEMAGLDETIAKLTKEKKALQEAHQQTLDDLQAEEDKVNTLTKAKTKLEQQVDDLEGSLEQEKKLRMDLERAKRKLEGDLKLA	>95	18	4.3	9.1	–
SEQID-00305: nutritive polypeptide (protein, listed as Bos taurus) MPHQYPALTPEQKKELCDIAHRIVAPGKGILAADESTGSIAKRLQSIGTENTEENRRFYRQLLLTADDRVNPCIGGVILFHETLYQKADDGRPFPQVIKAKGGVVGIKVDKGVVPLAGTNGETTTQGLDGLSERCAQYKKDGADFAKWRCVLKIGEHTPSSLAIMENANVLARYASICQQNGIVPIVEPEILPDGDHDLKRCQYVTEKVLAAVYKALSDHHIYLEGTLLKPNMVTPGHACTQKYSHEEIAMATVTALRRTVPPAVPGITFLSGGQSEEEASINLNAINKCPLLKPWALTFSYGRALQASALKAWGGKKENLKAAQEEYVKRALANSLACQGKYTPSGKAGAAASESLFISNHAY	48	12	–	–	–
SEQID-00100: nutritive polypeptide (protein, listed as Lactobacillus acidophilus) MSEEEIFNKIKDLIADNFEVDKDSITENTNFMNDLDADSIDLVEFILQLEDEFGAEIPDDEAEKIKTVGDAVSYIKSHQG	–	120	4.3	7.1	Tagg ([2]; pH 2.8): 95; Tagg ([2]; pH 3.7): 95; Tagg ([2]; pH 3.9): 95; Tagg ([2]; pH 4.3): 83^; Tagg ([2]; pH 4.6): 84^; Tagg ([2]; pH 5.0): 95; Tagg ([2]; pH 5.6): 95; Tagg ([2]; pH 6.0): 95; Tagg ([2]; pH 6.5): 95; Tagg ([2]; pH 7.1): >95
SEQID-00287: nutritive polypeptide (protein, listed as Saccharomyces cerevisiae, source: /note="strain ATCC 204508 / S288c", nutritive polypeptide) LVLGALLDTSHKFRNLDKDLCEKCAKCISMIGVLDVTKHEFKRTTYSENEVYDLNDSVQTIKFLIWVINDILV	–	180	6.2	9.1	pH Range where Protein is >80% detected as Soluble and A650 <1 OD: Other ([4]; other pH): 2.6
SEQID-00302: nutritive polypeptide (protein, Arthrospira platensis C1, nutritive polypeptide) MAKKTVANLSASELSGKKVLVRADFNVPLDNGSISDDTRIRAALPTIQDLTSKGAKVILSSHFGRPQGQVVESMRLTPVAARLSELLGKTVKKCDDCIGEEVAVAVGAMSDGDVLLLENVRFHAAEEKNDPEFAKQLASVADLYVNDAFGTAHRAHASTEGVTKYLSPCVAGYLIEKELQFLQGAIESPQRPLAAIIGGSKVSSKIGVIEALLDKCDKLLLGGGMIFTFYKARGLSVGNSLVEEDKLELAKSLEAKAKEKGVTMLLPTDVVLADKFAADADSQTVSVEAIPDGWMGLDIGPDSVKVFQEALGDCKTVLWNGPMGVFEFEKFAAGTRAIAQTLAELTSTGTTTIIGGGDSVAAVEQLNLGEKMSHISTGGGASLELLEGKQLPGIVALDDA	46	12	–	–	–
SEQID-00226: nutritive polypeptide (protein, listed as Bos taurus) QLQALQAQLTDTKKKVDDDLGTIENLEEAKKKLLKDVEVLSQRLEEKALAYDKLEKTKTRLQQELDDLLVDLDHQRQIVSNLEKKQKKFDQLLAEEKNIS	>95	42	2.6	9.1	–
SEQID-00220: nutritive polypeptide (protein, listed as Bos taurus) DTKKKVDDDLGTIENLEEAKKKLLKDVEVLSQRLEEKALAYDKLEKTKTRLQQELDDLLVDLDHQ	>95	30	–	–	–
SEQID-00102: nutritive polypeptide (protein, listed as Lactobacillus johnsonii) MTEEEIFNKIADMISERFSIDRDKITKDLNFQNDLDADSIDFVELVMDLEDTFGAEIPDDDAEKLQTVGEAVEYIKSHQN	>95	36	–	–	–
SEQID-00601: protein of the 168 nutritive polypeptide library (protein, listed as Agaricus bisporus, source: /note="var. bisporus"; source: /note="strain H97 / ATCC MYA-4626 / FGSC 10389", protein of the 168 nutritive polypeptide library) MTRSWEPGTQYNLGDVVEYNGDEYKIIQAHSSQSDWAPDRTPALWGKLPHRHHQQGQYQQQQECQPQQPQKTCYDYGKQEQAPQHSDSKEKKNWFGNITESQKQALEVGGGVALGAGLLGGAFAAWKHHQHKEEAHDSFEAWANAARSRAEEFRAKGPQGPATWVYNEGKHIPEQAILVGTEHNWNLYICRAYCDGGVQIGKASDVFKKGAVIGYKEDEHHLDKYEILLGDMRGLKWVQTGNSLDLASLGATPVEGGYENDHTRLYIARAFHKGAKHPGKVSERLDGAYIPYDGKEKCVKEYEVLCYL	–	12	–	–	% Intact Protein at 10 min [1]: 1.1%; % Remaining at 10 min [1]: 1.1%; Tagg ([2]; pH 2.8): 95; Tagg ([2]; pH 3.7): 95; Tagg ([2]; pH 4.3): 95^; Tagg ([2]; pH 6.5): 45.5; Tagg ([2]; pH 7.1): 48.5; Half-life [3]: 12 s
SEQID-00606: protein of the 168 nutritive polypeptide library (protein, Glycine max, protein of the 168 nutritive polypeptide library) MASEGDHHHHHHHHQDHDHHHHDHDHHHHHDGEGETNSWVGKDGKVYHSHDGLAPHSHEPIYSPGYFTRRAPPLLNRNFNERAFTVGIGGPVGTGKTALMLALCELLRENYSLAAVTNDIFTKEDGEFLVKHKALPEERIRAVETGGCPHAAIREDISINLGPLEELSNLFKADILLCESGGDNLAANFSRELADYIIYIIDVSGGDKIPRKGGPGITQADLLVINKTDLAPAIGADLAVMQRDALRMRDGGPFVFAQVKHKIGVEEIGNLVLQAWEAATGNKRH	95	18	–	–	% Intact Protein at 10 min [1]: 0%; % Remaining at 10 min [1]: 0%; Half-life [3]: 18 s
